# Reference: the nanobody polyreactivity screen of Harvey et al. (2022)
# Assay: yeast display, Sf9 membrane polyspecificity reagent, FACS + sequencing; frameworks hold sequencing errors
# Method in brief: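 In a synthetic yeast display library (Saccharomyces cerevisiae BJ5465), nanobody expression was induced with galactose for 36–48 hours. FACS gates were set low and high (top ~1%) using anti-HA fluorescence for expression and streptavidin fluorescence for binding of the Sf9 membrane reagent. Each polyreactivity label is drawn from the gate of origin.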
row,Sequence,polyreactivity (PSR sort gate)
1,QVQLVESGGGLVQAGGSLRLSCADSVSIFRVNAKRWYTQAPGKERELVAGISSRGGTSTYYADSVKGRFTISRDNAKNTVYLQMNSLKPEDTAVYYCNKTDITTSRHDYWRQGTQVTVSS,low polyreactivity
2,QVQLVESGGGLVQAGGSLRLSCADSVSTFQPNAMGSYRQAPGKERELVAAISRGGSTKYAYSVKGRITISRDSAKNTVYLQMNSLKPEDTAVYYRAVVFYRHVGYSGYYYWGQGTQVTVSS,low polyreactivity
3,QVQLVESGGGLVQAGGSLRLSCAESGLTFWDYVMGWYRQAPGKEMELVAAISDSGGDTYYADSVKGRFTISRDNAKNTVYLQMNSLKPEDTAVYYCAAEYAEYVLEYYRLYEYWGQGTQVTVSS,high polyreactivity
4,QVQLVESGGGLVQAGGSLRLSCAEYDMGWYRQAPGKERELVATITARGGSTYADSVKGRFTISRDNAKNTVYLQMNSLKPEDTAVYYCAADRFFWLRSYPRYYYWGQGTQVTVSS,low polyreactivity
5,QVQLVESGGGLVQAGGSLRLSCAGSGFSFPNNGMGGYRQAPGKERELVAAIRSSGGSTYYADSVKGRFTISRDNAKNTVYLQMNSLKPEDTAVYYCNARRRGGYVGRPRYPVAAYDYWGQGTQVTVSS,low polyreactivity
6,QVQLVESGGGLVQAGGSLRLSCAGSGIIFHLYAMGWYRQAPGKERELVAAISWNGSSTYYADSVKGRFTISRDNAKNTVYLQMNSLKPEDTAVYYCAASYGYFEDYGYWGQGTQVTVSS,low polyreactivity
7,QVQLVESGGGLVQAGGSLRLSCAGSGRIFGGYAMGWYRQAPGTERELVAAISRRGGSTYYADSVKGRFTISRDNAKNTVYLQMNSLKPEDTAVYYCARDYGGVGAPGSAGAYDYWGQGTQVTVSS,high polyreactivity
8,QVQLVESGGGLVQAGGSLRLSCAGSGRIFSENAMGWYRQAPGKERELVAAISVSGGSTYYADSVKGRFTISRDNAKNTVYLQMNSLKPEDTAVYYCAAEYLAYYSGYDYWGQGTQVTVSS,high polyreactivity
9,QVQLVESGGGLVQAGGSLRLSCAGSGSIFYQYAMGWYRQAPGKERELVAAISDSGGSTHYADSVKGRFTISRDNAKNTVYLQMNSLKPEDTAVYYCPANLYYQYGGDYWGQGSQVTVSS,low polyreactivity
10,QVQLVESGGGLVQAGGSLRLSCAGSGSIFYSNAMGWSRPAPGKERELVAAICWNGGRTYYADSVKGRFTISRDNAKNTVYLQMNSLKPEDTAVYYCAAKYRNRYDYWGHGTQVTVSS,low polyreactivity
11,QVQLVESGGGLVQAGGSLRLSCAGSGSTFPRYPMGWYRQAPGKERELVAAISYSGGRTYYADSVKGRFTISRDYAKNTVYLQMNSLKAEDTAVYYCKKRWRGAGTSYDYWGQGTQGTVSS,high polyreactivity
12,QVQLVESGGGLVQAGGSLRLSCAGSGSTFRSNAMGWYRQAPGKERELVAAISRSGGRTYYADSVKGRFTISRDNAKNTVYLQMNSLKPEDTAVYYCNTVLKRQRKNEYWGQGTQVTVSS,high polyreactivity
13,QVQLVESGGGLVQAGGSLRLSCAGSGSTLTWNDMGWYRHAPGKERELVASITQSGDSTYYADSVKGRFTISRDNAKNTVYLQMNSLKPEDTAVYYCSGVYTYPLGYYHYTYDYWGQGTQVTVSS,low polyreactivity
14,QVQLVESGGGLVQAGGSLRLSCAPCGSIFSSYAMGWYRQAPGQDWELVAAISSGGCITYYADSVKGRFTISRDNAKNTVYLQMHSLKPEDTAVYYCNARVARSNYGWYYDWGQGTQVTVSS,high polyreactivity
15,QVQLVESGGGLVQAGGSLRLSCAPSAGTFSPYDMGWSRQSPGKQRELVASITGSGGSTYFADSVKGRFTISRGNAKNTVYLQMNSLKPEDTAVYYCDAQGYWTYWPYLLRLYDYWGQGTQVTVSS,low polyreactivity
16,QVQLVESGGGLVQAGGSLRLSCAPSGFIFGSHAMGWYRQARGKERELVAAISARGGRTYYADSVKERFTISRDNAKNTVYLQMNSLKPADSAVYYCATLDTTGVNYWGQGTQVTVSS,high polyreactivity

row,Sequence,polyreactivity (PSR sort gate)
1,QVQLVESGGGLVQAGGSLRLSCAPSGFIFGSYAMGWYTQAPGKERELVAAISRSGGRTYYADSVKGRFTISRDNAKNTVYLQMNSLKPEDSAVYYCAAVHLLVYPTYDSWGQGTQVTVSS,high polyreactivity
2,QVQLVESGGGLVQAGGSLRLSCAPSGFIFHKYVMGWYRQAPGKERELVAAISRSGASTYYADSVKGRFTISRDNAKNTVYLQMNSLKPEDTAVYYCNAQPGKWEYDYWGQGTQVTVSS,high polyreactivity
3,QVQLVESGGGLVQAGGSLRLSCAPSGFIFYFYTMGRYRQAPGKEMELVAGITWLDGSTYYADSVKGRLTISRDNAKNTVYLQRNSLKPEDTAVYYCAVDYDLVVSPYYYWGQGTQVTVSS,low polyreactivity
4,QVQLVESGGGLVQAGGSLRLSCAPSGFTFRFYVMGWYRQAPGKERELVAAISSSGGSTYYADSVKGRFTISRDNAKYTVYLQMNSMKPEDTAVYYCAADVPGARVSYWTYSGWHYDYWGQGTQVTVSS,high polyreactivity
5,QVQLVESGGGLVQAGGSLRLSCAPSGGTFVSYVMGWYRQAPGKERELVAAISVSGGRTYYADSVKGRFTISRDNAKNTVYLQMNSLKPEDTAVYYCAADSVVVGSPGNDYWGQGTQVTVSS,high polyreactivity
6,QVQLVESGGGLVQAGGSLRLSCAPSGIIFRIYAMGWYRQAPGKEREFVAAISGSGDSTYYADSVKGRFTISRDNAKNTVYLQMNSLKPEDTAVYYCAADWTLVYYHEDYWGQGSQVTVSS,high polyreactivity
7,QVQLVESGGGLVQAGGSLRLSCAPSGIIFYAYAMGWYRQAPGKEREFVAAINNSGGRTYYADSVKGRFTISRDNAKNTVYLQMNSLKPEDTAVYYCAVYSYYRRTYRREMDYWGQGTQVTVSS,high polyreactivity
8,QVQLVESGGGLVQAGGSLRLSCAPSGISIIGYAMGWYRQAPGKVRELVASIDSGGITNYADSVKGRFTISRDNAKNTVYLQMNSLKPEDTAVYDCAARVAYFGGPYYSWGEGTQVTVSS,high polyreactivity
9,QVQLVESGGGLVQAGGSLRLSCAPSGLIFASYAMGWYRQAPGKERELVAAITSSGGSTYYADSVKGRFTISRDNAKNTVYLQMNSLKPEDTAVYYCAADIYTYNLFYHWRWLDYNYWGQGTQVTVSS,high polyreactivity
10,QVQLVESGGGLVQAGGSLRLSCAPSGNTFGRNAMGWYRQAPGKERELVAAISFSGSRTYYADSVKGRFTISRDNAKNTVYLQMSSLKPEDTAVYYCNKRGADWTGFFYYEYDYWGQGTQVTVSS,low polyreactivity
11,QVQLVESGGGLVQAGGSLRLSCAPSGRIFFYYVMGWYRQAPGKERELVAAITRSGGSTYYADSVKGRFTISRDNAKNTVYLQMNSLKPEDTAVYYCAVGDGFEFDWGQGTQVTVSS,low polyreactivity
12,QVQLVESGGGLVQAGGSLRLSCAPSGRIFHYNAMGWYRQAPGKERELVAAIDYGGSSTYYADSVKGRFTISRDNAKNTVYLEMNSLKPEDTAVYYCWGQATQVTVSS,low polyreactivity
13,QVQLVESGGGLVQAGGSLRLSCAPSGRIFQANAMGWYRQAPGKERELVASISSGVSTNYADYVKGRFTISRDNAKNTVYLQMNSQKQEDTGVYYCADSDPSSAYWVGYYWYDNWGQGTQVTVSS,low polyreactivity
14,QVQLVESGGGLVQAGGSLRLSCAPSGRIFQYYTMGWSRQAPGKDRELVATISRRGGRTYYADSVKGRFTISRDNAKNTVYLQKNSLKPEDTAVYYCAARTYSYEYDYWGQGTQVTVSS,high polyreactivity
15,QVQLVESGGGLVQAGGSLRLSCAPSGRIFRTNTMGWYRQAPGKERELVAAITRGGSTYYADSVKGRFTISRDNAKNTDYLQMKSLKPEDTAVYYCAASRYYNTVHNGGDYWGQGTQVTVSS,high polyreactivity
16,QVQLVESGGGLVQAGGSLRLSCAPSGRIFTRYAMGWYRQAPGKERELVAASSSSGGSTYYADSVKGRFTISRDNAKNTVYLQMTSLKPEDTAVYYCNRGGWYAYYWGQGTQVTVSS,high polyreactivity
